Data: a protein production outcome set (Wang et al. 2014)

Assay: label from the status in PepcDB records

| Sequence | protein production |
| --- | --- |
| MSRKTMNPTTVTQQLQKTYQAVGDGLLSEAFGLVRASVPSQQSHFLTRIDDLENVYRQLLSYFAQGVKDEKQAEMLLYLKRKLIGLAAEVHRESVVAQGTGLFYDRLRYRRSIGFESLVTLLEQAETSTVRKQFDELVRLIFDSLWTADALTDEEAAALSHAGEYIRLVAASALTMALQQQWHSKKLYFLLEELARPDITADYRARLLVGVVLTLRSYPHHTRLYYNEIALRLEAVNEHIPLEPTLEMLSIRFLFACETESITKHLQTELFSDIQKIAPDLRKFGMGDTESIQETGNPEWMEELEKSGLGDKIREFSELQLEGADVMHSSFMNLKGSSFFREMHNWFLPFDAAHSRIAPLLEENAVLKQLVEAIGPQLCNSDRYSFIVSMESLPAALRGSAMGAVGGELDALKEQIKQDVPVGETGKLDTAIKSYLQDLYRFYKVCERKNEFDDIFLSPIPPDLPVLDRYLYKRDTLLHTAEFLFRRKHYDRAAKLLADLAEGKESATDTTLHQKLGFSLQQQGLFAQALAAYSRAELIDTENEWLLKRMAHCYRQLCRPAEAAEIYERLFERNPHEATLLLQRGNALVEDSRYDEALQCFFRYEFSVDDASKARRPIAWCLFLTGQYERAGDYYRTILESDDLSTFTDRLNAGHTSLAMGQIPVAIDHYLAGLKLTPNGKDEFLAAYTADIPVLLKAGIEDAVIRLIPEVLRLHPN | failed |
| MNRPHSATGDRPLALVDEHAHAWSPKTARARFRKGLTGPTAGVAAGHTQANLISVPADWAYDMLLFCTRNPQPCPVLDVTDAGSWTTVLADGADLRTDLPRYRVWRDGELVDEPSDVREHWRDDLVTFLIGCSFTFEWALAAAGVPIRHVEQGRNVPMYVTSRACRPAGRLRGPMVVSMRPVPPAHLSAAIHESSLLPAVHGSPVHCGDPSALGIDDLDRPDFGEAVYREPDDIPVFWACGVTPQAAVMASRPPFALTHAPGQMFLTDARDEQYRVALEHHHHHH | failed |
| SVATQHLFARQKNTQLTLHVAHSFCSQWLMPRLADFHRQHPDVVVKISTTANTVPNASAIADVEIINGYGDWQSEQAVQLTQEN | failed |
| MYDWFSEMRKKDPVYYDGNIWQVFSYRYTKEVLNNFSKFSSDLTGYHERLEDLRNGKIRFDIPTRYTMLTSDPPLHDELRSMSADIFSPQKLQTLETFIRETTRSLLDSIDPREDDIVKKLAVPLPIIVISKILGLPIEDKEKFKEWSDLVAFRLGKPGEIFELGKKYLELIGYVKDHLNSGTEVVSRVVNSNLSDIEKLGYIILLLIAGNETTTNLISNSVIDFTRFNLWQRIREENLYLKAIEEALRYSPPVMRTVRKTKERVKLGDQTIEEGEYVRVWIASANRDEEVFHDGEKFIPDRNPNPHLSFGSGIHLCLGAPLARLEARIAIEEFSKRFRHIEILDTEKVPNEVLNGYKRLVVRLKSNE | not failed |
| MKRKSIFLTFGLLVLSWIGCVENDLPYPTIVGQITEMEVAGMTSCRILGASNTVEIKVADTIDLRDLRVEKLVVTEGMKVYPDSAACLDIAHFPDTGFVSADSLPAGMDTRMNFLNPVKFRLSLYQDYDWTVNVSRDIVRKIKIKNQVGSALIDDYTKNVIVYVDSTEQPSLRNIEIEELQLGSSIAQTTPDPSKVVDFTRPRVFYVTAFDETEEWTLSVQYPNANVQLTQLSAWTRRAYVSGSISKGEVEAEYRKAGETVWESVLPNEISYEGEDFLIMMTHLAAGTNYEYRLTMNGTVGEILTFTTDTIMQVPNLGFDDWVMKNEKTWYPNATLDDADHFWDSGNEGASIASRNPTAPETGDVVKGRAVRMASDYISIASKFAAGNIYTGDFVGLAGIEGAELDFGQPYTGRPSALKGYYRYTPGVIDQAKAPYDALMGQTDSCHIYIGLFDWSAPFRVNTTTGTFVDLTWNNESMIAFGELKSNEATGSEYKQFKINLTYRDYFTHPKYILIVASASKYGDYFTGSTSSVMYLDECELVFE | failed |
| MFIASFITGPFQTNCYLLAREQGSECVIVDLGMGAEEFLGDALRTHHLVPVAIAVTHGHIDHIGSARQVGDEYGIPVLCPRDDRHLLSDPMAGLSDFARPLIEQWYGSTTLREPEQVVDVEPFSHHQFANLDLEFLHAPGHTPGCSMIRTIDAEFGPIVMSGDVVFAGSIGRTDMPGGDPAQMSYSLSDVVWSLDDSTHVLPGHGGPTTMANERLTNPFLGRR | failed |
| MPKEKYEPPDPRRMYTIMSSEEAANGKKSHWAELEISGKVRSLSSSLWSLTHLTALHLSDNSLSCIPSDIAKLHNLVYLDLSHNQIQSLPAELGNMVSLRELHLNYNQLRVLPFELGKLFQLQTLSLKGNPLTQDILNLCLEPDGTRRLLNYLLDNLSVSTEQPPPRSWIMLQEPDRTRPTALFSVMCYNVLCDKYATRQLYGYCPSWALNWDYRKKAIIQEILSCNADIISLQEVETEQYYSFFLVELKERGYNGFFSPKSRARTMSEQERKHVDGCAIFFKTEKFTLVQKHTVEFNQLAMANSEGSEAMLNRVMTKDNIGVAVLLELRKELIEMSSGKPHLGTEKQLILVANAHMHWDPEYSDVKLVQTMMFLSEVKNIIDKASRSLKSSVLGECGTIPLVLCADLNSLPDSGVVEYLSTGGVETNHKDFKELRYNESLTNFSCNGKNGMTNGRITHGFKLKSAYENGLMPYTNYTFDFKVSFHSLIFISMFCNFLSLKHQCML | failed |
| MIPLSESFESGIPAIWKTIDADGDGYNWMHLTNFTGQSGLCVSSASYIGGVGALTPDNYLITPELKLPTDALVEIIYWVCTQDLTAPSEHYAVYSSSTGNNAADFVNLLYEETLTAKRIQSPELIRGNRTQGVWYQRKVVLPNDTKYVAFRHFNSTDNFWLNLDEVSILYTPLPRRA | not failed |
| MAEPVQEELSVLAAIFCRPHEWEVLSRSETDGTVFRIHTKAEGFMDADIPLELVFHLPVNYPSCLPGISINSEQLTRAQCVTVKEKLLEQAESLLSEPMVHELVLWIQQNLRHILSQPETG | not failed |
| MAPPAQKGNLRKRSGKTSTAVNSAINENVRKLVRSLSEPGTSQKKLRQMEDTALKIIANQRRTWAPTTTDMEVKRNLDDLAERFRAEGMASFGESIKDLAIRYLAMDENQQQFNPNPGWQMLELLFRIADRPVQKIRLNREFMEQRRLSIINSMEEAERQAQIEEQAKLEAAKNTSETEVDWAALLSEDFLDPPEDDSSDSLSDWSEESDCDSTTTLKPDENIGVSRSLLEMARVYEQAMMAVVPTGSVNKTYMPPEQSVIRSYDFRIMKPTVLSLNNLKGSHLRRSKLLQLPPPQPPRPFTQYWQSGNTDTLFRKIHSHWWCQDVHLNALPSSAKPLDNFAVSYVQFLNHNARGLLALPVPKTITEPCLLREILFMFVRPASCCFFEFDKATRRITVRDNVSICTVTASTMQNFLLFNVVPALEDMMELRHIIDTHTLHFHGVKTTYTVEFFAYGLRDLVQPICQLLIAYEDRVNKDPAKNTLIRFTIEFREHFSQLRLLRELAEDVILDKGPAHIRSAYLLSRLYKHTLLQVPHQKLATALLFISLKRYCIIIDGWWRRAALEDHLREFIVEFCYEEDANTRSHVRKRNMGMEDDLLLVEIFNKLQSCPLYQLLLEHALESGETQDLLCSVNTLSEMLTSNNEIQLPSLHDELFTQFFAQLKVYCGADNTDYEDEPEPDKDYEDLTVCNRQGIRNHELFAIFTQPLVEQRLERQRERLKSNPVLMANILKRLERSTCLQLKSELPEALREILRRRQWLANEYAIRAYCKETQVAEKMRFLRHTMLLEKYYLFVPYYNALFVRMEKNNSWALGSVLTSKLCAVLLPHYPQLAHYLHVKLISQINSNSIKVYEALEAIELDFERPMAMHQWYILTPAHMQDYNSVWRLMLKVKWAVWKLENMQFLRRARFNPCAPLDLIGLTIRRLEIVRFWLIFLINNLHAHIMEAVSRQFELRIGECKNVRELRIMHDEHLAWLKTHCMLTDEFKAFRVALDQIFHLVYVLDMEWTTCASCMHDHDALCLDFTISDDGIDDSETQRRSLEYLALNQVAEIELTYIRCHQMLADILNTLVHQNDHGFLSALEETINSSVPH | failed |
| MFNGMVRTIRDSVVGTYPSCHVSSRLEERRAKQRAMRQERRRKPDKPDDFVTYEDSGSDEETPQQQEEVLNTSYNLCDYLRSRESGLRDRRSVNVEYTSRYVLTHDMLRETQISLGYINKVFCSKWLSSRQVVFGTKCNKLLVYDVNMRRVDAIPTLSNSRANHPEVQGGLHAIELSPSRSFLATGARNSSDIAVYRLPTLDPVCVGEGGHRDLIMGMCWLDDQFLVSGSKDSRMALWRINEDHMEFPDGGEEACPTFATIHPLSVKEVRTAQRIRSLCFNKEFKEIAALSLNGYIHIFNAETFKQTLSRKLPNCQDNVSIAYHSDGLYAVGCRSYTILLDARTLQTIKKITSRYSGCGIRATSFEGNLLTVGTGLGMLLFYDIRAGKYLESSVNASRTVALKCSKGIVYPEDEMDGFQQVKYVPAIYTHCYDSTRMRLFAAGGPLPATLVGNYAGVWQ | failed |
| MNTSNRRMGLFYVITGATCWGIGGTVAKKLFQEYQIDVNWLVTTRLLTAGMLLLMLQLFRKDRSQVIEVWKHKASAGQLLIFGLLGMLAVQYTYMASIQHGNAAVATLLQYLSPVIVIIYTLLRKQTVLTKQDIITVVLALVGCFFLLTNGSMSQLSVPAAAVVWGVLSGFAAAFYTLYAVGLLNKFDSLVVVGWAMIIGGFALGFIHPPWQLDFQRLTAEAYAYILFVILFGTMIAFWFFIKSLESLSPKETSLLGSLEPLSAVVTTVVWLKAPFGSFQWIGAICIIGITLILALHKEPSMESEKSILKIRNHANRDI | failed |
| MKIALINENSQASKNHIIYDSLKEATDKKGYQLFNYGMRGEEGESQLTYVQNGLMAAILLNTKAVDFVVTGCGTGVGAMLALNSFPGVVCGLAVDPTDAYLYSQINGGNALSIPYAKGFGWGAELTLKLMFERLFAEEMGGGYPRERVIPEQRNARILNEVKQITHNDLMTILKIIDQDFLKDTISGKYFQEYFFENCQDDEVAAYLKEVLA | failed |
| MYEAHFGLKQLPFTLTPNTSLFHGLSPHYEAIHTVLSAISMGEGIIKVTGEVGTGKTLVCRMLINELPSNVELLYLPNPVMNGHELRQALAKELWLDQSGDDIALIDRIHEKIIDLHAEGKLVVVFIDEAQALSDEALETLRLFGNLETDYKKLLQIVLFGQPELDERLQQHNLRQLRQRITFSALLRALNMNETVAYIRYRIAESGCENNPFSLVQMKAIWKATNGIPRLINQVCHKSLLIAFSEQVNNVPSKAVFNAIIDTADTVKPKHYFPTFWGWRVSLEHHHHHH | not failed |
| MQGGRFMGNKNLIITIEREYGSGGRIVGKKLAEELGIHFYDDDILKLASEKSAVGEQFFRLADEKAGNNLLYRLGGGRKIDLHSKPSPNDKLTSPENLFKFQSEVMRELAESEPCIFVGRAAGYVLDQDEDIERLIRIFVYTDKVKKVQRVMEVDCIDEERAKRRIKKIEKERKEYYKYFTGSEWHSMKNYDLPINTTKLTLEETAELIKAYIRLKGFMD | not failed |
| SLSPAELHADSIVIDGLIIAKWNRELFEDMRKGGLTAANCTVSVWEGFQATVNNIVASNKLIRDNSDLVIPVRSTADIRKAKEQGKTGILYGFQNAHAFEDQIGYVEVFKQLGVGIVQMCYNTQNLVGTGCYERDGGLSGFGREIVAEMNRVGIMCDLSHVGSKTSEEVILESKKPVCYSHCLPSGLKEHPRNKSDEELKFIADHGGFVGVTMFAPFLKKGIDSTIDDYAEAIEYVMNIVGEDAIGIGTDFTQGHGHDFFEWLTHDKGYARRLTNFGKIVNPLGIRTVGEFPNLTETLLKRGMPERVVRKVMGENWVRVLRDVWGE | not failed |
| MEATNKMKVEVWSDIMCPFCYIGKRNYEAGLKQFADSNNIEIIWKSFQLDPNIPQDTAVTENVYQYLAERKGMSYEQSVQMHDSVVATAKKAGLDYNFDKAVIANSFNAHRMIQLAKTKDLGDAAEERLFYAYFTEGKNVGNSYVLIELGKDIGLTEAEVQTALTDDTYAYKVRQDVEEAQHLGVRGVPFFVFDRKYAVSGAQPPQAFLETLEKSFSEWRKEHPASPFEVSEGPSCSVDGCD | not failed |
| MSIEIRKLSIEDLETLIEVARESWKWTYAGIYSEEYIESWIREKYSKEKLLNEIVRSQSNLDILFLGAFADSTLIGFIELKIIANKAELLRLYLKPEYTHKKIGKTLLLEAEKIMKKKGILECRLYVHRQNSVGFSFYYKNGFKVEDTDGSDFIMEKKY | not failed |
